According to patent publication US20020115606A1 (MYRIAD GENETICS, published 2002):

Legend:
CIB amino acids 1-191 = CIB amino acids 1-191 (yeast, UniProt P04386 1-147; Q99828 1-191); test: yeast two-hybrid, Gal4, human brain cDNA library
[1] = target: transthyretin (TTH) amino acids 7-148 (yeast; human, UniProt P04386 768-881; P02766 7-147); test: yeast two-hybrid
Excerpt: (§1) The principles and methods of the yeast two-hybrid systems have been described in detail (Bartel and Fields, 1997). The following is thus a description of the particular procedure that was used, which was applied to all proteins.
(§2) The cDNA encoding the bait protein was generated by PCR from brain cDNA. Gene-specific primers were synthesized with appropriate tails added at their 5′ ends to allow recombination into the vector pGBTQ. The tail for the forward primer was 5′-[…]-3′ (SEQ ID NO: 1) and the tail for the reverse primer was 5′-[…]-3′ (SEQ ID NO:2). […] The new construct was selected directly in the yeast J693 for its ability to drive tryptophane synthesis (genotype of this strain: Mat α, ade2, his3, leu2, trp1, URA3::GAL1-lacZ LYS2::GAL1-HIS3 gal4del gal80del cyhR2). In these yeast cells, the bait is produced as a C-terminal fusion protein with the DNA binding domain of the transcription factor Gal4 (amino acids 1 to 147). A total human brain (person) cDNA library cloned into the yeast expression vector pACT2 was purchased from Clontech (human brain […] cDNA, cat. # HL4004AH), transformed into the yeast strain J692 (genotype of this strain: Mat α, ade2, his3, leu2, trp1, URA3::GAL1-lacZ LYS2::GAL1-HIS3 gal4del gal80del cyhR2), and selected for the ability to drive leucine synthesis. In these yeast cells, each cDNA is expressed as a fusion protein with the transcription activation domain of the transcription factor Gal4 (amino acids 768 to 881) and a 9 amino acid hemagglutinin epitope tag. J693 cells […] expressing the bait were then mated with J692 cells […] expressing proteins from the brain library. The resulting diploid yeast cells expressing proteins interacting with the bait protein were selected for the ability to synthesize tryptophane, leucine, histidine, and β-galactosidase.

[2] = target: T1, PN7740 amino acids 27-322 (yeast; human, UniProt P04386 768-881); test: yeast two-hybrid
T1 construct: also called novel phosphatase
T1 sequence: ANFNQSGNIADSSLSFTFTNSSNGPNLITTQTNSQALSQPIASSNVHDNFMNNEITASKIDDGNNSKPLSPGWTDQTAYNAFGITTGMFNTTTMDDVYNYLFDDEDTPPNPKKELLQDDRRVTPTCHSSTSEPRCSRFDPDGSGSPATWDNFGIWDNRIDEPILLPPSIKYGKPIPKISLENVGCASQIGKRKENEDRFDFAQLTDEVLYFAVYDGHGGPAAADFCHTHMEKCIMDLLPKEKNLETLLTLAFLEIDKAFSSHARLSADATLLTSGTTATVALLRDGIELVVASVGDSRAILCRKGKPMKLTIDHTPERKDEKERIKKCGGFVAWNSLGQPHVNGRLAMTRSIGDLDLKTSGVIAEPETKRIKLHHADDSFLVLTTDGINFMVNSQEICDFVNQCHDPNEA
Excerpt: as §1, §2

[3] = target: T2, Mint1 amino acids 447-758 (yeast, UniProt P04386 1-147; Q02410 447-758); test: yeast two-hybrid
T2 construct: also called X11 alpha
Excerpt: as §1, §2

[4] = target: T3, glutamine synthase (GS) amino acids 49-212 (yeast; human, UniProt P04386 768-881; P15104 49-212); test: yeast two-hybrid
T3 construct: also called glutamine synthetase; glutamate ammonia ligase
Excerpt: as §1, §2

[5] = target: Focal adhesion kinase (FAK) amino acids 724-1052 (yeast, UniProt P04386 1-147; Q05397 724-1052); test: yeast two-hybrid
Excerpt: as §1, §2

B1: stearoyl CoA desaturase (SCD2) amino acids 320-359 (other)
chain: ANFNQSGNIADSSLSFTFTNSSNGPNLITTQTNSQALSQPIASSNVHDNFMNNEITASKIDDGNNSKPLSPGWTDQTAYNAFGITTGMFNTTTMDDVYNYLFDDEDTPPNPKKETTFFIDCMAALGLAYDRKKVSKAAILARIKRTGDGNYKSG
notes: range 768-881;range 320-359; also called Delta(9) desaturase
B1: binds (CIB amino acids 1-191).

B2: BAT3 (HLA-B associated transcript) amino acids 740-1040 (other, UniProt P04386 1-147, looked up)
chain: MKLLSSIEQACDICRLKKLKCSKEKPKCAKCLKNNWECRYSPKTKRSPLTRAHLTEVESRLERLEQLFLLIFPREDLDMILKMDSLQDIKALLTGLFVQDNVNKDAVTDRLASVETDMPLTLRQHRISATSSSEESSNKGQRQLTVSFEPGADGALGFFGALLSLLCQNFSMVDVVMLLHGHFQPLQRLQPQLRSFFHQHYLGGQEPTPSNIRMATHTLITGLEEYVRESFSLVQVQPGVDIIRTNLEFLQEQFNSIAAHVLHCTDSGFGARLLELCNQGLFECLALNLHCLGGQQMELAAVINGRIRRMSRGVNPSLVSWLTTMMGLRLQVVLEHMPVGPDAILRYVRRVGDPPQPLPEEPMEVQGAERASPEPQRENASPAPGTTAEEAMSRGPPPAPEGGSRDEQDGASAETEPWAAAVPPEWVPIIQQDIQSQRKVKPQPPLSD
B2: binds [1].

B3: Fe65 amino acids 360-552 (first phosphotyrosine binding domain, PTB) (other, UniProt P04386 1-147, looked up)
chain: MKLLSSIEQACDICRLKKLKCSKEKPKCAKCLKNNWECRYSPKTKRSPLTRAHLTEVESRLERLEQLFLLIFPREDLDMILKMDSLQDIKALLTGLFVQDNVNKDAVTDRLASVETDMPLTLRQHRISATSSSEESSNKGQRQLTVSPRNTNPGIKCFAVRSLGWVEMTEEELAPGRSSVAVNNCIRQLSYHKNNLHDPMSGGWGEGKDLLLQLEDETLKLVEPQSQALLHAQPIISIRVWGVGRDSGRERDFAYVARDKLTQMLKCHVFRCEAPAKNIATSLHEICSKIMAERRNARCLVNGLSLDHSKLVDVPFQVEFPAPKNELVQKFQVYYLGNVP
B3: binds [2].

B4: KIAA0427 amino acids 364-589 (other, yeast;human, UniProt P04386 768-881, looked up, not shown: small tags and cut ends)
chain: ANFNQSGNIADSSLSFTFTNSSNGPNLITTQTNSQALSQPIASSNVHDNFMNNEITASKIDDGNNSKPLSPGWTDQTAYNAFGITTGMFNTTTMDDVYNYLFDDEDTPPNPKKETTTPQQNKMDKLIEILNSMRNNSSDVDTKLTTFMEEAQNSTNSEEMLGEIVRTIYQKAVSDRSFAFTAAKLCDKMALFMVEGTKFRSLLLNMLQKDFTVREELQQQDVERWLGFITFLCEVFGTMRSSTGEPFRVLVCPIYTCLRELLQSQDVKEDAVLCCSMELQSTGRLLEEQLPEMMTELLASARDKMLCPSESMLTRSLLLEVIELHANSWNPLTPPITQYY
B4: binds [3].

B5: Mint1 amino acids 739-837 (other, UniProt P04386 1-147, looked up)
chain: MKLLSSIEQACDICRLKKLKCSKEKPKCAKCLKNNWECRYSPKTKRSPLTRAHLTEVESRLERLEQLFLLIFPREDLDMILKMDSLQDIKALLTGLFVQDNVNKDAVTDRLASVETDMPLTLRQHRISATSSSEESSNKGQRQLTVSIVRCPPVTTVLIRRPDLRYQLGFSVQNGIICSLMRGGIAERGGVRVGHRIIEINGQSVVATPHEKIVHILSNAVGEIHMKTMPAAMYRLLTAQEQPVYI
notes: also called X11 alpha
B5: binds [4].

B6: casein kinase II (CK2) amino acids 264-351 (other, yeast;human, UniProt P04386 768-881, looked up, not shown: small tags and cut ends)
chain: ANFNQSGNIADSSLSFTFTNSSNGPNLITTQTNSQALSQPIASSNVHDNFMNNEITASKIDDGNNSKPLSPGWTDQTAYNAFGITTGMFNTTTMDDVYNYLFDDEDTPPNPKKEIDLDPHFNDILGQHSRKRWENFIHSENRHLVSPEALDLLDKLLRYDHQQRLTAKEAMEHPYFYPVVKEQSQPCADNAVLSSGLTAAR
B6: binds [5].

B7: glutathione-S-transferase M3 (GST trans. M3) amino acids 15-226 (other, yeast;human, UniProt P04386 768-881, looked up, not shown: small tags and cut ends)
chain: ANFNQSGNIADSSLSFTFTNSSNGPNLITTQTNSQALSQPIASSNVHDNFMNNEITASKIDDGNNSKPLSPGWTDQTAYNAFGITTGMFNTTTMDDVYNYLFDDEDTPPNPKKERGLAHAIRLLLEFTDTSYEEKRYTCGEAPDYDRSQWLDVKFKLDLDFPNLPYLLDGKNKITQSNAILRYIARKHNMCGETEEEKIRVDIIENQVMDFRTQLIRLCYSSDHEKLKPQYLEELPGQLKQFSMFLGKFSWFAGEKLTFVDFLTYDILDQNRIFDPKCLDEFPNLKAFMCRFEALEKIAAYLQSDQFCKMPINNKMAQWGNKPVC
B7: binds [5].
